US20250222069A1 (ACCELERON PHARMA, published 2025)

Target: T1, GDF11 (UniProt O95390 299-407)
T1 construct: also called BMP11
T1 sequence (looked up): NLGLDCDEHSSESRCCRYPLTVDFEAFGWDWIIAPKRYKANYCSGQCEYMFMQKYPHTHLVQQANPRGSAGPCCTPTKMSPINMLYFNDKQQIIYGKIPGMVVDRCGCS
Assay: Biacore; ligand coupled to chip, receptor flowed over (table reproduced from WO2006/012627)

B1: Soluble ActRIIB-Fc D80I (Fc fusion, not shown: a dimerising Fc or GST)
chain: SGRGEAETRECIYYNANWELERTNQSGLERCEGEQDKRLHCYASWANSSGTIELVKKGCWLIDFNCYDRQECVATEENPQVYFCCCEGNFCNERFTHLPEA
notes: From WO2006/012627; background 64A inferred
binding as fraction of WT binding: < 0.2 fold

B2: Soluble ActRIIB-Fc K74F (Fc fusion, not shown: a dimerising Fc or GST)
chain: SGRGEAETRECIYYNANWELERTNQSGLERCEGEQDKRLHCYASWANSSGTIELVFKGCWLDDFNCYDRQECVATEENPQVYFCCCEGNFCNERFTHLPEA
notes: as for B1
binding as fraction of WT binding: < 0.2 fold

B3: Soluble ActRIIB-Fc K74Y (Fc fusion, not shown: a dimerising Fc or GST)
chain: SGRGEAETRECIYYNANWELERTNQSGLERCEGEQDKRLHCYASWANSSGTIELVYKGCWLDDFNCYDRQECVATEENPQVYFCCCEGNFCNERFTHLPEA
notes: as for B1
binding as fraction of WT binding: < 0.2 fold

B4: Soluble ActRIIB-Fc K74I (Fc fusion, not shown: a dimerising Fc or GST)
chain: SGRGEAETRECIYYNANWELERTNQSGLERCEGEQDKRLHCYASWANSSGTIELVIKGCWLDDFNCYDRQECVATEENPQVYFCCCEGNFCNERFTHLPEA
notes: as for B1
binding as fraction of WT binding: < 0.2 fold
